From PMC5261807 (2017) come the findings set out here.

Test [1] deals with T1, Bdf1 bromodomain 1 (GST-tagged, WT) (Saccharomyces cerevisiae (strain ATCC …, UniProt P35817)).
T1 chain: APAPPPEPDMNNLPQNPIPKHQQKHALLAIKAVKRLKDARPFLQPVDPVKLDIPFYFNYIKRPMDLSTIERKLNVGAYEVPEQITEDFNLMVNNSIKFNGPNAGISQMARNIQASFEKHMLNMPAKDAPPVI
The experiment in a line: histone peptide array probed with recombinant GST-bromodomain, signal normalised to myc peptide control.

The target of test [2] is T2, Bdf1 bromodomain 2 (GST-tagged, WT) (Saccharomyces cerevisiae (strain ATCC …, UniProt P35817)).
T2 chain: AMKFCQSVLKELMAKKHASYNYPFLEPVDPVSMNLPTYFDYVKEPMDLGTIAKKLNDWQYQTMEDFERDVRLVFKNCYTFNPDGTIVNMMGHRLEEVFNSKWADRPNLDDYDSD
The test is described as above.

Non-standard residues stand in square brackets, D forms with d. No end group written: not given here. Arg(Me2a) = CN(C)C(=N)NCCC[C@H](N)C(=O)O; Lys(Me3) = C[N+](C)(C)CCCC[C@H](N)C(=O)O; Arg(Me2s) = CN=C(NC)NCCC[C@H](N)C(=O)O; pT = C[C@@H](OP(=O)(O)O)[C@H](N)C(=O)O; Me2a = asymmetric dimethyl (on Arg); Lys(Me2) = CN(C)CCCC[C@H](N)C(=O)O; Me2s = symmetric dimethyl (on Arg); pS = N[C@@H](COP(=O)(O)O)C(=O)O; Lys(Me) = CNCCCC[C@H](N)C(=O)O; Me3 = trimethyl (on Lys)

For the molecule ARTKQTARKSTGGKAPRKQ (A Rme2a T Kme2 Q T A Rme2s Kme2 S T G G K A P R K Q), the binding score in test [1] and in test [2] was 0 throughout.
For A[Arg(Me2s)]TK(Ac)QTA[Arg(Me2a)][Lys(Me2)]STGGKAPRKQ, the binding score in test [1] turned out to be 0.00197; in test [2], 0.00698.
Take SGRGKGGKGLGKGGAKRHR (S G R G K G G Kac G L G Kac G G A Kac R H R): the results for the binding score in test [1] and in test [2] were 0.484 and 0.448, respectively.
As for ARTKQTARKSTGGKAPRKQ (A Rme2a T Kme3 Q T A Rme2s Kac S T G G K A P R K Q), the binding score came to 0.0181 in test [1] and 0.0261 in test [2].
As to ARTK(Me3)QTAR(Me2s)K(Me)STGGKAPRKQ, the binding score in test [1] and in test [2] was 0 in each case.
With ARTKQTA[Arg(Me2s)]K(Ac)S[pT]GGKAPRKQ, the binding score in test [1] was found to be 0.0118; in test [2] it was 0.00679.
Taken in the same sequence, the figures for SGRGK(Ac)QGGK(Ac)ARAK(Ac)AKSRSS [H2a 1-19] were 0.144 and 0.394.
In the case of PRKQLATKAAR[Lys(Me2)]SAPATGG, the binding score in test [1] stood at 0.01; in test [2] it was 0.
For the molecule RKSAPATGGVKKPHRYRPG (R K S A P A T G G V Kac K P H R Y R P G) [H3 26-45], the results for the binding score in test [1] and in test [2] were 0.0463 and 0.0292, respectively.
As for ARTKQTARKSTGGKAPRKQ (A Rme2a pT Kme3 Q T A R K S T G G K A P R K Q), the binding score is 0.00789 in test [1] and 0.000885 in test [2].
Regarding AR(Me2a)TK(Me)QTAR(Me2s)K(Me)STGGKAPRKQ, the binding score in test [1] is 0.0102; in test [2], 0.00187.
Taken in the same sequence, the figures for PRKQLATKAAR[Lys(Me2)][pS]APATGG were 0 and 0.
On the same counts, the results for ARTKQTARKSTGGKAPRKQ (A Rme2a T Kme3 Q T A Rme2a Kac S T G G K A P R K Q) are 0.0145 and 0.
Take ARTKQTARKSTGGKAPRKQ (A R T K Q T A R K S pT G G K A P R K Q): the binding score in test [1] and in test [2] was 0 in each case.
Turning to A[Arg(Me2a)]T[Lys(Me3)]QTA[Arg(Me2a)][Lys(Me3)]STGGKAPRKQ, the results for the binding score in test [1] and in test [2] were 0 and 0.00384, respectively.
Taken in the same sequence, the figures for SGRGKGGKGLGKGGAKRHR (pS G Rme2s G Kac G G K G L G K G G A K R H R) were 0.00968 and 0.107.
Take PRKQLATKAA[Arg(Me2a)][Lys(Me)]SAPATGG: the binding score in test [1] was 0.00341; in test [2], 0.
On the same counts, the results for A[Arg(Me2a)]TK(Ac)QTA[Arg(Me2a)][Lys(Me)]STGGKAPRKQ are 0.00897 and 0.
Taken in the same sequence, the figures for PRKQLATKAA[Arg(Me2a)][Lys(Me)][pS]APATGG were 0 and 0.
On to ARTKQTARKSTGGKAPRKQ (A Rme2s T Kme2 Q T A Rme2s Kac S T G G K A P R K Q), for which the binding score in test [1] was determined as 0.0179; in test [2] it was 0.0314.
PRKQLATKAA[Arg(Me2a)][Lys(Me2)][pS]APATGG: the binding score in test [1] and in test [2] was 0 throughout.
In the case of ARTKQTARKSTGGKAPRKQ (A R T K Q T A Rme2s Kac pS T G G K A P R K Q), the binding score in test [1] was 0.00484; in test [2] it was 0.00403.
A[Arg(Me2s)]TKQTARKSTGGKAPRKQ: the binding score came out at 0.0111 in test [1] and 0 in test [2].
On the same counts, the results for KKKKKRRRRRXKKKKRK (K Kme1 Kme2 Kme3 Kac R Rme2s R Rme2a R Cit K Kme1 Kac Kme3 R K) [background 01] are 0 and 0.
On the same counts, the results for ARTKQTARKSTGGKAPRKQ (A Rme2a T Kme1 Q T A Rme2s Kac S T G G K A P R K Q) are 0.00717 and 0.0204.
On the same counts, the results for SGRGKGGKGLGKGGAKRHR (S G R G Kac G G Kac G L G K G G A K R H R) are 0.146 and 0.33.
Consider SGRGKGGKGLGKGGAKRHR (pS G Rme2s G K G G K G L G K G G A K R H R), for which the binding score in test [1] and in test [2] was 0 in each case.
ARTKQTARKSTGGKAPRKQ (A R T K Q T A R Kme1 S T G G K A P R K Q): the binding score in test [1] was 0; in test [2], 0.00482.
With ART[Lys(Me)]QTA[Arg(Me2s)][Lys(Me)]STGGKAPRKQ, the binding score in test [1] came out at 0.0199; in test [2], 0.
On the same counts, the results for ARTKQTARKSTGGKAPRKQ (A Rme2s T Kme3 Q T A Rme2s Kme2 S T G G K A P R K Q) are 0.000538 and 0.
Taken in the same sequence, the figures for SGRGKGGKGLGKGGAKRHR (S G Rme2a G Kac G G Kac G L G K G G A K R H R) were 0.0418 and 0.137.
Taken in the same sequence, the figures for A[Arg(Me2s)][pT][Lys(Me)]QTARKSTGGKAPRKQ were 0.00323 and 0.00344.
In the case of ARTKQTARKSTGGKAPRKQ (A Rme2s T Kme1 Q T A Rme2a Kme2 S T G G K A P R K Q), the binding score in test [1] turned out to be 0.00502; in test [2] it was 0.
On the same counts, the results for ARTKQTARKSTGGKAPRKQ (A Rme2a T Kme2 Q T A Rme2s Kac S T G G K A P R K Q) are 0.0213 and 0.0274.
